The labels stand for the following.
B1: ADP361 (protein)
chain: MAPPQVLAFGLLLAAATATFAAAQEECVCENYKLAVNCFVNNNRQCQCTSVGAQNTVICSKLAAKCLVMKAEMNGSKLGRRAKPEGALQNNDGLYDPDCDESGLFKAKQCNGTSMCWCVNTAGVRRTDKDTEITCSERVRTYWIIIELKHKAREKPYDSKSLRTALQKEITTRYQLDPKFITSILYENNVITIDLVQNSSQKTQNDVDIADVAYYFEKDVKGESLFHSKKMDLTVNGEQLDLDPGQTLIYYVDEKAPEFSMQGLKAG
modifications: bait human Fc-tagged dimer
B2: ADP392 (protein)
chain: GLTRSCDSSGDGGPGTAPAPSHLPSSTASPSGPPAQDQDICPASEDESGQWKNFRLPDFVNPVHYDLHVKPLLEEDTYTGTVSISINLSAPTRYLWLHLRETRITRLPELKRPSGDQVQVRRCFEYKKQEYVVVEAEEELTPSSGDGLYLLTMEFAGWLNGSLVGFYRTTYTENGQVKSIVATDHEPTDARKSFPCFDEPNKKATYTISITHPKEYGALSNMPVAKEESVDDKWTRTTFEKSVPMSTYLVCFAVHQFDSVKRISNSGKPLTIYVQPEQKHTAEYAANITKSVFDYFEEYFAMNYSLPKLDKIAIPDFGTGAMENWGLITYRETNLLYDPKESASSNQQRVATVVAHELVHQWFGNIVTMDWWEDLWLNEGFASFFEFLGVNHAETDWQMRDQMLLEDVLPVQEDDSLMSSHPIIVTVTTPDEITSVFDGISYSKGSSILRMLEDWIKPENFQKGCQMYLEKYQFKNAKTSDFWAALEEASRLPVKEVMDTWTRQMGYPVLNVNGVKNITQKRFLLDPRANPSQPPSDLGYTWNIPVKWTEDNITSSVLFNRSEKEGITLNSSNPSGNAFLKINPDHIGFYRVNYEVATWDSIATALSLNHKTFSSADRASLIDDAFALARAQLLDYKVALNLTKYLKREENFLPWQRVISAVTYIISMFEDDKELYPMIEEYFQGQVKPIADSLGWNDAGDHVTKLLRSSVLGFACKMGDREALNNASSLFEQWLNGTVSLPVNLRLLVYRYGMQNSGNEISWNYTLEQYQKTSLAQEKEKLLYGLASVKNVTLLSRYLDLLKDTNLIKTQDVFTVIRYISYNSYGKNMAWNWIQLNWDYLVNRYTLNNRNLGRIVTIAEPFNTELQLWQMESFFAKYPQAGAGEKPREQVLETVKNNIEWLKQHRNTIREWFFNLLESG
modifications: bait human Fc-tagged dimer
B3: ADP103 (protein)
chain: MAAALFVLLGFALLGTHGASGAAGFVQAPLSQQRWVGGSVELHCEAVGSPVPEIQWWFEGQGPNDTCSQLWDGARLDRVHIHATYHQHAASTISIDTLVEEDTGTYECRASNDPDRNHLTRAPRVKWVRAQAVVLVLEPGTVFTTVEDLGSKILLTCSLNDSATEVTGHRWLKGGVVLKEDALPGQKTEFKVDSDDQWGEYSCVFLPEPMGTANIQLHGPPRVKAVKSSEHINEGETAMLVCKSESVPPVTDWAWYKITDSEDKALMNGSESRFFVSSSQGRSELHIENLNMEADPGQYRCNGTSSKGSDQAIITLRVRSHL
modifications: bait human Fc-tagged dimer
B4: ADP141 (protein)
chain: MGRLASRPLLLALLSLALCRGRVVRVPTATLVRVVGTELVIPCNVSDYDGPSEQNFDWSFSSLGSSFVELASTWEVGFPAQLYQERLQRGEILLRRTANDAVELHIKNVQPSDQGHYKCSTPSTDATVQGNYEDTVQVKVLADSLHVGPSARPPPSLSLREGEPFELRCTAASASPLHTHLALLWEVHRGPARRSVLALTHEGRFHPGLGYEQRYHSGDVRLDTVGSDAYRLSVSRALSADQGSYRCIVSEWIAEQGNWQEIQEKAVEVATVVIQPSVLRAAVPKNVSVAEGKELDLTCNITTDRADDVRPEVTWSFSRMPDSTLPGSRVLARLDRDSLVHSSPHVALSHVDARSYHLLVRDVSKENSGYYYCHVSLWAPGHNRSWHKVAEAVSSPAGVGVTWLEPDYQVYLNASKVPGFADDPTELACRVVDTKSGEANVRFTVSWYYRMNRRSDNVVTSELLAVMDGDWTLKYGERSKQRAQDGDFIFSKEHTDTFNFRIQRTTEEDRGNYYCVVSAWTKQRNNSWVKSKDVFSKPVNIFWALEDSVLVVKARQPKPFFAAGNTFEMTCKVSSKNIKSPRYSVLIMAEKPVGDLSSPNETKYIISLDQDSVVKLENWTDASRVDGVVLEKVQEDEFRYRMYQTQVSDAGLYRCMVTAWSPVRGSLWREAATSLSNPIEIDFQTSGPIFNASVHSDTPSVIRGDLIKLFCIITVEGAALDPDDMAFDVSWFAVHSFGLDKAPVLLSSLDRKGIVTTSRRDWKSDLSLERVSVLEFLLQVHGSEDQDFGNYYCSVTPWVKSPTGSWQKEAEIHSKPVFITVKMDVLNAFKYP
modifications: bait human Fc-tagged dimer
B5: ADP342 (protein)
chain: MATQLPAYVAILLFYVSRASCQDTFTAAVYEHAAILPNATLTPVSREEALALMNRNLDILEGAITSAADQGAHIIVTPEDAIYGWNFNRDSLYPYLEDIPDPEVNWIPCNNRNRFGQTPVQERLSCLAKNNSIYVVANIGDKKPCDTSDPQCPPDGRYQYNTDVVFDSQGKLVARYHKQNLFMGENQFNVPKEPEIVTFNTTFGSFGIFTCFDILFHDPAVTLVKDFHVDTIVFPTAWMNVLPHLSAVEFHSAWAMGMRVNFLASNIHYPSKKMTGSGIYAPNSSRAFHYDMKTEEGKLLLSQLDSHPSHSAVVNWTSYASSIEALSSGNKEFKGTVFFDEFTFVKLTGVAGNYTVCQKDLCCHLSYKMSENIPNEVYALGAFDGLHTVEGRYYLQICTLLKCKTTNLNTCGDSAETASTRFEMFSLSGTFGTQYVFPEVLLSENQLAPGEFQVSTDGRLFSLKPTSGPVLTVTLFGRLYEKDWASNASSGLT
modifications: bait human Fc-tagged dimer
B6: ADP276 (protein)
chain: DRGHLDYPRNPRREGSFPQGQLSMLQEKIDHLERLLAENNEIISNIRDSVINLSESVEDGPKSSQSNFSQGAGSHLLPSQLSLSVDTADCLFASQSGSHNSDVQMLDVYSLISFDNPDGGVWKQGFDITYESNEWDTEPLQVFVVPHSHNDPGWLKTFNDYFRDKTQYIFNNMVLKLKEDSRRKFIWSEISYLSKWWDIIDIQKKDAVKSLIENGQLEIVTGGWVMPDEATPHYFALIDQLIEGHQWLENNIGVKPRSGWAIDPFGHSPTMAYLLNRAGLSHMLIQRVHYAVKKHFALHKTLEFFWRQNWDLGSVTDILCHMMPFYSYDIPHTCGPDPKICCQFDFKRLPGGRFGCPWGVPPETIHPGNVQSRARMLLDQYRKKSKLFRTKVLLAPLGDDFRYCEYTEWDLQFKNYQQLFDYMNSQSKFKVKIQFGTLSDFFDALDKADETQRDKGQSMFPVLSGDFFTYADRDDHYWSGYFTSRPFYKRMDRIMESHLRAAEILYYFALRQAHKYKINKFLSSSLYTALTEARRNLGLFQHHDAITGTAKDWVVVDYGTRLFHSLMVLEKIIGNSAFLLILKDKLTYDSYSPDTFLEMDLKQKSQDSLPQKNIIRLSAEPRYLVVYNPLEQDRISLVSVYVSSPTVQVFSASGKPVEVQVSAVWDTANTISETAYEISFRAHIPPLGLKVYKILESASSNSHLADYVLYKNKVEDSGIFTIKNMINTEEGITLENSFVLLRFDQTGLMKQMMTKEDGKHHEVNVQFSWYGTTIKRDKSGAYLFLPDGNAKPYVYTTPPFVRVTHGRIYSEVTCFFDHVTHRVRLYHIQGIEGQSVEVSNIVDIRKVYNREIAMKISSDIKSQNRFYTDLNGYQIQPRMTLSKLPLQANVYPMTTMAYIQDAKHRLTLLSAQSLGVSSLNSGQIEVIMDRRLMQDDNRGLEQGIQDNKITANLFRILLEKRSAVNTEEEKKSVSYPSLLSHITSSLMNHPVIPMANKFSSPTLELQGEFSPLQSSLPCDIHLVNLRTIQSKVGNGHSNEAALILHRKGFDCRFSSKGTGLFCSTTQGKILVQKLLNKFIVESLTPSSLSLMHSPPGTQNISEINLSPMEISTFRIQLR
modifications: bait human Fc-tagged dimer

The target of the test is Circumsporozoite protein (CSP) (Plasmodium falciparum (isolate 3D7), UniProt Q7K740). The test can be described thus: AVEXIS screen signal:noise (double-corrected).
Chain of Circumsporozoite protein (CSP) (Q7K740 19-374): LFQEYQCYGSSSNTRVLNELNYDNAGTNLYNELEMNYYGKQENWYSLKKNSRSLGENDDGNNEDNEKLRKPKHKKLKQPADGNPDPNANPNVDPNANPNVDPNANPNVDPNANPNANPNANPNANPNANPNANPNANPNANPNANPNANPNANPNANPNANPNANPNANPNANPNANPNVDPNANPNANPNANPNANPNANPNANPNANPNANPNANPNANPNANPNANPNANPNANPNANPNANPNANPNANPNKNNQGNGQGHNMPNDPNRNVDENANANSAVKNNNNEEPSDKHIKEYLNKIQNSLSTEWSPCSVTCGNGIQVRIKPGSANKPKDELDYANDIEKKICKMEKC
In the case of B1, the binding score is 6.45.

As to B2, the binding score amounted to 0.793.

For B3, the binding score worked out at 0.981.

Molecule B4 displayed a binding score of 2.49.

As to B5, the binding score came out at 1.71.

In turn, B6 displayed a binding score of 0.79.

Source of the values: PMC11098746 (2024).
